For experiment [1], the target named is PF3D7_0220000 recombinant protein with a stop in the second position of the KKVRF motif (Plasmodium falciparum). As to the kind of experiment: ELISA; plates coated with 25 pmol/well of each recombinant Pip in PBS overnight at 4 °C; biotin-PfPP1 4 pmol/well in solution. A general note: ELISA stands for enzyme-linked immunosorbent assay.
Experiment [2] deals with PF3D7_0919900 recombinant protein, KSVSF to KSASA (Plasmodium falciparum). The experiment is described as above.

As to “biotin labeled PfPP1 (from UniProt Q8ILV1 1-304) (enzyme)”, the decrease of the binding against the wild protein (100 %) in experiment [1] was 86%; in experiment [2], 70%.

Source of the values: article PMC4794898.
